The text below walks through data of patent US20210361750A1, “Anti-Viral Lactoferrin Facemask” (priority 2020, published 2021).

Data set [1] has as its system SARS-CoV-2. Kind of data set: SARS-CoV-2 cytopathic effect inhibition by lactoferrin at various pH levels in Vero E6 cells. The format is cell-based, SARS-CoV-2 (strain COV2019 Italy/INM11). As to conditions: for average neutralizing titer: lactoferrin 10 mg/mL.
For data set [2], the system named is SARS-CoV-2. As to the kind of experiment: Cyclodextrin testing: antiviral activity against SARS-CoV-2 in Vero E6 cells (CPE). The data set is classed as cell-based. The settings on record: pH 7; lactoferrin alone 10 mg/mL, cyclodextrin alone 10 mg/mL, or lactoferrin 5 mg/mL + cyclodextrin 10 mg/mL.
Another data set has as its system Vero cells. The settings on record: 10 mg/mL lactoferrin, incubated up to 72 hours.
The next data set relates to Vero E6 cells. As to conditions: control without virus, 10 mg/mL.
Data set [3] has as its system SARS-CoV-2. As to conditions: patients with SARS-CoV-2, after oral administration; cited from earlier work.

B1: lactoferrin (protein, UniProt P02788 20-710, looked up)
Lactotransferrin: GRRRSVQWCAVSQPEATKCFQWQRNMRKVRGPPVSCIKRDSPIQCIQAIAENRADAVTLDGGFIYEAGLAPYKLRPVAAEVYGTERQPRTHYYAVAVVKKGGSFQLNELQGLKSCHTGLRRTAGWNVPIGTLRPFLNWTGPPEPIEAAVARFFSASCVPGADKGQFPNLCRLCAGTGENKCAFSSQEPYFSYSGAFKCLRDGAGDVAFIRESTVFEDLSDEAERDEYELLCPDNTRKPVDKFKDCHLARVPSHAVVARSVNGKEDAIWNLLRQAQEKFGKDKSPKFQLFGSPSGQKDLLFKDSAIGFSRVPPRIDSGLYLGSGYFTAIQNLRKSEEEVAARRARVVWCAVGEQELRKCNQWSGLSEGSVTCSSASTTEDCIALVLKGEADAMSLDGGYVYTAGKCGLVPVLAENYKSQQSSDPDPNCVDRPVEGYLAVAVVRRSDTSLTWNSVKGKKSCHTAVDRTAGWNIPMGLLFNQTGSCKFDEYFSQSCAPGSDPRSNLCALCIGDEQGENKCVPNSNERYYGYTGAFRCLAENAGDVAFVKDVTVLQNTDGNNNEAWAKDLKLADFALLCLDGKRKPVTEARSCHLAMAPNHAVVSRMDKVERLKQVLLHQQAKFGRNGSDCPDKFCLFQSETKNLLFNDNTECLARLHGKTTYEKYLGPQYVAGITNLKKCSTSPLLEACEFLRK
notes: stock solution in water at 10 mg/mL
As to B1, the “inhibitory effect on viral infection in Vero cells” value with SARS-CoV-2 [1] (cells pre-incubated with lactoferrin 0.313-10 mg/mL for one hour) is reported as “showed an inhibitory effect”. The molecule further gave an average neutralizing titer with SARS-CoV-2 [1] (pH 4) of 452. Besides, in the data set with SARS-CoV-2 [1] (pH 7), the average neutralizing titer is given as 40 and the antiviral efficacy entry is on record as “consistent low efficacy”. Besides, in the data set with SARS-CoV-2 [1] (pH 4, 5, and 6), the “lactoferrin concentration of maximum inhibitory effect” value came out at 5 mg/mL. Moreover, the “inhibitory effect on viral infection” value with SARS-CoV-2 [1] (without the pre-incubation step, any pH) is “no inhibitory effect”. The “antiviral activity (cytopathic effect)” value in the data set with SARS-CoV-2 [2] was “did not show antiviral activity”. In addition, in the data set on Vero cells, the cellular cytotoxicity result is “No cellular cytotoxicity”. Further, the “cytopathic effect on the cells” value in the data set on Vero E6 cells was “neither the lactoferrin alone (10 mg/mL) or the cyclodextrin alone (10 mg/mL) had a cytopathic effect”. The “time to reduced severity and duration of disease” value in the data set with SARS-CoV-2 [3] is 4 to 5 days.
